Laboratory results taken from patent US20130231277A1 (published 2013).

T1: ectodomain of murine βKlotho (F53 to L995 of SEQ ID NO: 218) with a C-terminal FLAG tag (UniProt Q99N32 53-995)
T1 chain: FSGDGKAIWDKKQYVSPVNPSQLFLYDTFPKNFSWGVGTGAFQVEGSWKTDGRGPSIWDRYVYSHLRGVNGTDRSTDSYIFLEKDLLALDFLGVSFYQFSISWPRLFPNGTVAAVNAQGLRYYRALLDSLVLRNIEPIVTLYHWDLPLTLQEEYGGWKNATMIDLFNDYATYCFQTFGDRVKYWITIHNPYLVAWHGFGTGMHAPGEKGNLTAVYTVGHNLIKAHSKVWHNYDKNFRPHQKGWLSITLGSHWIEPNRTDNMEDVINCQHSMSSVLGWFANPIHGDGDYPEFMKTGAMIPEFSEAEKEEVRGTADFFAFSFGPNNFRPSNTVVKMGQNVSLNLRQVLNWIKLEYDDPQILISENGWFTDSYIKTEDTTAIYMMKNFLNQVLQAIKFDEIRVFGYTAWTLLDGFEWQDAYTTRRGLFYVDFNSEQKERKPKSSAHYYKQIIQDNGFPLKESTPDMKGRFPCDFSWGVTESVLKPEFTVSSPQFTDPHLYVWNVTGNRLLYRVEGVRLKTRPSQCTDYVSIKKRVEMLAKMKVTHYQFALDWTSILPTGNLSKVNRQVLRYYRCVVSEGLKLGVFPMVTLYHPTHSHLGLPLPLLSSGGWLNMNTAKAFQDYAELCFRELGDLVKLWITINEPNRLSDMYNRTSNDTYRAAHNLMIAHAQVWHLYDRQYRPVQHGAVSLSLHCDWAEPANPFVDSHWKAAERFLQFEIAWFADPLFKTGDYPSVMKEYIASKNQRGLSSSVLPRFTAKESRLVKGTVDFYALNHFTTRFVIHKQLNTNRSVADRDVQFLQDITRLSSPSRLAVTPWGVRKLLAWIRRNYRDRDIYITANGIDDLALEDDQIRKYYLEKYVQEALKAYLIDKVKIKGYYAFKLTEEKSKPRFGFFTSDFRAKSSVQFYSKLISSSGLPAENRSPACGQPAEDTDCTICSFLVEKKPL


Biological target: T1, ectodomain of murine βKlotho (F53 to …)
Experiment: SPR

Kd	Binder
124 nM	ligand-binding domain of human FGFR1c (D142 to R365 of SEQ ID NO: 221) (receptor) DNTKPNRMPVAPYWTSPEKMEKKLHAVPAAKTVKFKCPSSGTPNPTLRWLKNGKEFKPDHRIGGYKVRYATWSIIMDSVVPSDKGNYTCIVENEYGSINHTYQLDVVERSPHRPILQAGLPANKTVALGSNVEFMCKVYSDPQPHIQWLKHIEVNGSKIGPDNLPYVQILKTAGVNTTDKEMEVLHLRNVSFEDAGEYTCLAGNSIGLSHHSAWLTVLEALEER
170 nM	ligand-binding domain of human FGFR2c (N149 to E368 of SEQ ID NO: 226) (receptor) NNKRAPYWTNTEKMEKRLHAVPAANTVKFRCPAGGNPMPTMRWLKNGKEFKQEHRIGGYKVRNQHWSLIMESVVPSDKGNYTCVVENEYGSINHTYHLDVVERSPHRPILQAGLPANASTVVGGDVEFVCKVYSDAQPHIQWIKHVEKNGSKYGPDGLPYLKVLKAAGVNTTDKEIEVLYIRNVTFEDAGEYTCLAGNSIGISFHSAWLTVLPAPGREKE
